Reference: the supplement of paper PMC9112550, “Optimization of the antimicrobial peptide Bac7 by deep mutational scanning” (BMC Biology, 2022)

tested on: Escherichia coli TOP10; assay: shrunken log2 fold change of peptide-encoding DNA abundance (4.5 h post-induction vs induction); higher = less antimicrobial activity (less host growth inhibition); details: time post-induction: 4.5 h; library: site-saturation at positions 5, 18, 19, 20
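Note: peptides expressed intracellularly from a pBAD plasmid library in pooled LB shake-flask culture, induced with 0.3% L-arabinose, DNA abundance read by NGS, three biological replicates, DESeq2 with apeglm shrinkage.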

Row | Sequence | shrunken log2 fold change
1 | RRIRVRPPRLPRPRPRPCSFPRP | 0.0114
2 | RRIRGRPPRLPRPRPRPWMQPRP | -0.539
3 | RRIRCRPPRLPRPRPRPVTDPRP | 0.133
4 | RRIRVRPPRLPRPRPRPWKQPRP | -0.0479
5 | RRIRDRPPRLPRPRPRPHVNPRP | 0.000411
6 | RRIRERPPRLPRPRPRPAAAPRP | 0.436
7 | RRIRCRPPRLPRPRPRPTVKPRP | -0.286
8 | RRIRFRPPRLPRPRPRPCCYPRP | -0.251
9 | RRIRSRPPRLPRPRPRPGKCPRP | 0.0216
10 | RRIRWRPPRLPRPRPRPYLCPRP | -0.447
11 | RRIRSRPPRLPRPRPRPTRKPRP | 0.138
12 | RRIRDRPPRLPRPRPRPSMQPRP | -0.157
13 | RRIRARPPRLPRPRPRPMGLPRP | 0.00193
14 | RRIRFRPPRLPRPRPRPRMEPRP | -0.00899
15 | RRIRIRPPRLPRPRPRPFLTPRP | -0.736
16 | RRIRMRPPRLPRPRPRPHMCPRP | 0.000241
17 | RRIRSRPPRLPRPRPRPYTKPRP | -0.202
18 | RRIRHRPPRLPRPRPRPLWQPRP | -0.145
19 | RRIRVRPPRLPRPRPRPMKAPRP | 0.0113
20 | RRIRFRPPRLPRPRPRPVTDPRP | 0.00378
21 | RRIRQRPPRLPRPRPRPRKPPRP | 0.0318
22 | RRIRHRPPRLPRPRPRPGGEPRP | 0.183
23 | RRIRIRPPRLPRPRPRPEMHPRP | -0.328
24 | RRIRRRPPRLPRPRPRPMVRPRP | 0.276
25 | RRIRRRPPRLPRPRPRPAMYPRP | -0.145

Row | Sequence | shrunken log2 fold change
26 | RRIRNRPPRLPRPRPRPQVHPRP | -0.161
27 | RRIRNRPPRLPRPRPRPFSFPRP | -0.186
28 | RRIRQRPPRLPRPRPRPPTTPRP | -0.0101
29 | RRIRTRPPRLPRPRPRPEVLPRP | -0.0153
30 | RRIRARPPRLPRPRPRPERHPRP | 0.58
31 | RRIRFRPPRLPRPRPRPINGPRP | -0.0164
32 | RRIRNRPPRLPRPRPRPMNWPRP | 0.127
33 | RRIRNRPPRLPRPRPRPKLCPRP | 0.163
34 | RRIRNRPPRLPRPRPRPHLKPRP | -0.875
35 | RRIRHRPPRLPRPRPRPNLVPRP | -0.00912
36 | RRIRNRPPRLPRPRPRPIMGPRP | -0.0169
37 | RRIRSRPPRLPRPRPRPIPAPRP | -0.286
38 | RRIRCRPPRLPRPRPRPKHTPRP | -0.0232
39 | RRIRDRPPRLPRPRPRPHLQPRP | 0.157
40 | RRIRDRPPRLPRPRPRPVHCPRP | -0.0301
41 | RRIRDRPPRLPRPRPRPKNFPRP | -0.174
42 | RRIRGRPPRLPRPRPRPCVAPRP | 1.1
43 | RRIRPRPPRLPRPRPRPLYLPRP | -0.625
44 | RRIRRRPPRLPRPRPRPSFCPRP | -0.00369
45 | RRIRDRPPRLPRPRPRPAQMPRP | 1.2
46 | RRIRDRPPRLPRPRPRPWSEPRP | -0.228
47 | RRIRQRPPRLPRPRPRPMMCPRP | -0.0115
48 | RRIRQRPPRLPRPRPRPLKVPRP | -0.102
49 | RRIRPRPPRLPRPRPRPMLPPRP | 0.0406
50 | RRIRLRPPRLPRPRPRPMGKPRP | -0.353

Row | Sequence | shrunken log2 fold change
51 | RRIRFRPPRLPRPRPRPNQAPRP | 0.138
52 | RRIRRRPPRLPRPRPRPYAKPRP | 0.106
53 | RRIRTRPPRLPRPRPRPRRNPRP | 0.125
54 | RRIRIRPPRLPRPRPRPHDWPRP | -0.317
55 | RRIRCRPPRLPRPRPRPKHRPRP | -0.212
56 | RRIRFRPPRLPRPRPRPKEDPRP | 0.122
57 | RRIRWRPPRLPRPRPRPVNSPRP | 0.0541
58 | RRIRLRPPRLPRPRPRPMDDPRP | -0.117
59 | RRIRYRPPRLPRPRPRPNCQPRP | -0.0282
60 | RRIRSRPPRLPRPRPRPIRYPRP | 0.31
61 | RRIRWRPPRLPRPRPRPIAFPRP | 0.171
62 | RRIRCRPPRLPRPRPRPSSVPRP | -0.548
63 | RRIRQRPPRLPRPRPRPDLKPRP | -0.0178
64 | RRIRIRPPRLPRPRPRPYEEPRP | -0.828
65 | RRIRTRPPRLPRPRPRPPQAPRP | 0.121
66 | RRIRWRPPRLPRPRPRPATQPRP | 0.105
67 | RRIRHRPPRLPRPRPRPDYNPRP | -0.901
68 | RRIRLRPPRLPRPRPRPEVKPRP | -0.108
69 | RRIRFRPPRLPRPRPRPSCKPRP | -0.901
70 | RRIRWRPPRLPRPRPRPEEYPRP | 0.113
71 | RRIRGRPPRLPRPRPRPMLWPRP | 0.737
72 | RRIRWRPPRLPRPRPRPGQIPRP | -0.0275
73 | RRIRKRPPRLPRPRPRPAIIPRP | -0.0297
74 | RRIRFRPPRLPRPRPRPGHRPRP | 0.0983
75 | RRIRCRPPRLPRPRPRPVRHPRP | 0.403

Row | Sequence | shrunken log2 fold change
76 | RRIRCRPPRLPRPRPRPQEPPRP | 0.359
77 | RRIRKRPPRLPRPRPRPYPFPRP | 0.00884
78 | RRIRKRPPRLPRPRPRPNDWPRP | 0.455
79 | RRIRSRPPRLPRPRPRPVFQPRP | -0.302
80 | RRIRTRPPRLPRPRPRPMICPRP | -0.0677
81 | RRIRWRPPRLPRPRPRPVDSPRP | 0.183
82 | RRIRGRPPRLPRPRPRPWVQPRP | 0.0601
83 | RRIRMRPPRLPRPRPRPQIAPRP | 0.208
84 | RRIRLRPPRLPRPRPRPVNIPRP | -0.163
85 | RRIRNRPPRLPRPRPRPLCQPRP | -0.307
86 | RRIRPRPPRLPRPRPRPHVDPRP | -0.029
87 | RRIRPRPPRLPRPRPRPWFKPRP | -0.125
88 | RRIRLRPPRLPRPRPRPSKYPRP | -0.578
89 | RRIRERPPRLPRPRPRPLGEPRP | 0.0918
90 | RRIRNRPPRLPRPRPRPFQEPRP | -0.0276
91 | RRIRVRPPRLPRPRPRPIVGPRP | 0.0676
92 | RRIRIRPPRLPRPRPRPPLIPRP | -0.512
93 | RRIRTRPPRLPRPRPRPGLNPRP | -0.213
94 | RRIRLRPPRLPRPRPRPQAFPRP | 0.0474
95 | RRIRWRPPRLPRPRPRPLPEPRP | 0.265
96 | RRIRPRPPRLPRPRPRPRTWPRP | 0.537
97 | RRIRWRPPRLPRPRPRPILAPRP | 0.364
98 | RRIRARPPRLPRPRPRPEFHPRP | 0.847
99 | RRIRVRPPRLPRPRPRPFQCPRP | -0.0433
100 | RRIRKRPPRLPRPRPRPVIWPRP | 0.153

Row | Sequence | shrunken log2 fold change
101 | RRIRYRPPRLPRPRPRPLKTPRP | 0.0308
102 | RRIRWRPPRLPRPRPRPQITPRP | -0.216
103 | RRIRIRPPRLPRPRPRPDEHPRP | -0.272
104 | RRIRPRPPRLPRPRPRPGCPPRP | 0.0239
105 | RRIRTRPPRLPRPRPRPEADPRP | 0.0868
106 | RRIRSRPPRLPRPRPRPTCNPRP | 0.0589
107 | RRIRLRPPRLPRPRPRPQMGPRP | -0.0175
108 | RRIRPRPPRLPRPRPRPFMSPRP | -0.384
109 | RRIRMRPPRLPRPRPRPITFPRP | 0.0589
110 | RRIRKRPPRLPRPRPRPQDDPRP | 0.00685
111 | RRIRFRPPRLPRPRPRPHGYPRP | -0.707
112 | RRIRYRPPRLPRPRPRPAGMPRP | -0.0428
113 | RRIRTRPPRLPRPRPRPVFFPRP | 0.0831
114 | RRIRARPPRLPRPRPRPHSLPRP | 0.314
115 | RRIRTRPPRLPRPRPRPDMPPRP | -0.064
116 | RRIRIRPPRLPRPRPRPEDPPRP | 0.0426
117 | RRIRHRPPRLPRPRPRPFDRPRP | -0.172
118 | RRIRPRPPRLPRPRPRPIHWPRP | 0.225
119 | RRIRVRPPRLPRPRPRPWEMPRP | -0.00133
120 | RRIRQRPPRLPRPRPRPMRCPRP | 0.054
121 | RRIRQRPPRLPRPRPRPCQFPRP | 0.0287
122 | RRIRGRPPRLPRPRPRPMKQPRP | 0.316
123 | RRIRWRPPRLPRPRPRPPKAPRP | -0.0568
124 | RRIRVRPPRLPRPRPRPEWAPRP | 0.0253
125 | RRIRIRPPRLPRPRPRPTLQPRP | 0.00305

Row | Sequence | shrunken log2 fold change
126 | RRIRWRPPRLPRPRPRPTKQPRP | 0.0132
127 | RRIRHRPPRLPRPRPRPKPFPRP | 0.0272
128 | RRIRYRPPRLPRPRPRPSSVPRP | -0.425
129 | RRIRPRPPRLPRPRPRPYTFPRP | -0.504
130 | RRIRGRPPRLPRPRPRPSMTPRP | 2.35
131 | RRIRARPPRLPRPRPRPFGCPRP | 0.128
132 | RRIRWRPPRLPRPRPRPTRNPRP | -0.0437
133 | RRIRPRPPRLPRPRPRPGTKPRP | 0.453
134 | RRIRHRPPRLPRPRPRPEHLPRP | 0.0981
135 | RRIRNRPPRLPRPRPRPPLFPRP | 0.00419
136 | RRIRNRPPRLPRPRPRPYTQPRP | -0.798
137 | RRIRLRPPRLPRPRPRPNWNPRP | -0.386
138 | RRIRRRPPRLPRPRPRPDNIPRP | 0.123
139 | RRIRDRPPRLPRPRPRPDMCPRP | -0.0138
140 | RRIRYRPPRLPRPRPRPHFCPRP | -0.428
141 | RRIRHRPPRLPRPRPRPLQFPRP | -0.28
142 | RRIRARPPRLPRPRPRPGTNPRP | 0.204
143 | RRIRKRPPRLPRPRPRPDESPRP | 0.0701
144 | RRIRFRPPRLPRPRPRPHIRPRP | -0.113
145 | RRIRRRPPRLPRPRPRPARRPRP | 0.546
146 | RRIRLRPPRLPRPRPRPFFPPRP | -0.225
147 | RRIRPRPPRLPRPRPRPPPWPRP | 0.588
148 | RRIRYRPPRLPRPRPRPERTPRP | 0.0654
149 | RRIRLRPPRLPRPRPRPTRKPRP | 0.374
150 | RRIRVRPPRLPRPRPRPYKKPRP | 0.0251
